Assay results taken from publication PMC5835332.

Target: actin from bovine muscle, monomerized (G-actin), labelled with NT-647 dye (bovine) (UniProt P68138)
Experiment: MST

F3_(P97-232), recombinant fragment of the P97 cilium adhesin (amino acids 768-938) (domain or fragment)
Kd: 1.79 µM

F1_(P97-232), recombinant fragment of the P97 cilium adhesin (amino acids 106-758) (domain or fragment)
Kd: 0.0342 µM
